Results published in US20150044226A1 (SBI BIOTECH, published 2015).
Positions count from the first letter of the chain named.

B1: anti-PLD4 mouse 3B4 antibody (antibody, V domains shown)
VH: EVQLQQSGTVLSRPGASVTMSCKASGDSFTTYWMHWVKQRPGQGLEWIGAIYPGNSETSYNQKFKGKAKLTAVTSASTAYMEFTSLTNEDSAVYYCTGGYSDFDYWGQGTTLTVSS
VL: DILMTQSPSSMSVSLGDTVSITCHASQGIRSNIGWLQQKPGKSFKGLIFHGTNLEDGVPSRFSGRGSGADYSLTINSLESEDFADYYCVQYVQFPPTFGSGTKLEIRR
notes: Tested as hybridoma culture supernatant and as protein A purified antibody
B2: anti-PLD4 mouse 5B7 antibody (antibody, V domains shown)
VH: EVQLQQSGPELVKPGASVKISCKASGYTFTDYNLHWVKQSHGKSLEWIGYIYPYNGNTGYNQKFKRKATLTVDNSSGTVYMELRSLTSEDSAVYYCARGGIYDDYYDYAIDYWGQGTSVTVSS
VL: DIQMTQSPASLSVSVGETVAITCRASENIYSHIAWYQQKEGKSPQRLVYGATNLAHGVPSRFSGSGSGTQYSLKINSLQSEDFGSYYCQHFWGTPWTFGGGTKLEIKR
notes: Tested as hybridoma culture supernatant and as protein A purified antibody; also called mp5B7 (hybridoma)
B3: anti-PLD4 mouse 7B4 antibody (antibody, mouse IgG2b, V domains shown)
VH: B2 VH
VL: B2 VL
notes: Tested as hybridoma culture supernatant and as purified antibody; also called mp7B4 (hybridoma)
B4: anti-PLD4 mouse 13H11 antibody (antibody, mouse IgG2b, V domains shown)
VH: DVQLQESGPGLVKPSQSLSLTCSVTGYSISSHYYWSWIRQFPGNRLEWMGYISYDGSNNYNPSLKNRISITRDTSKNQFFLKLNSVTTEDTATYNCAREGPLYYGNPYWYFDVWGAGTTVTVSS
VL: DIQMTQTTSSLSASLGGSVTISCRASQDIDNYLNWYQQKPDGTVKLLIYYTSRLHSGVPSRFSGSGSGTDYSLTISNLEQEDIATYFCQQFNTLPRTFGGGTKLEIKR
notes: Tested as hybridoma culture supernatant and as purified antibody; also called mp13H11 (hybridoma)
B5: anti-PLD4 mouse 14C1 antibody (antibody, mouse IgG1, V domains shown)
VH: B4 VH
VL: B4 VL
notes: Tested as hybridoma culture supernatant and as purified antibody
B6: anti-PLD4 mouse 13D4 antibody (antibody, mouse IgG2b, V domains shown)
VH: B4 VH with S30T, S36T, R45K
VL: B4 VL with G17D, S18R, I83V
notes: Tested as hybridoma culture supernatant and as purified antibody; also called mp13D4 (hybridoma)
B7: anti-PLD4 mouse 11G9.6 antibody (antibody, V domains shown)
VH: QVQLQQPGAELVKPGTSVKMSCKASGYTFTSYWMHWVKQRPGQGLEWIGDIYPGSDSTNYNEKFKSKATLTVDTSSSTAYMQLSSLTSEDSAVYYCARGGWLDAMDYWGQGTSVTVSS
VL: B4 VL with G17D, S18R, D30S, F91G, R96W
notes: Tested as hybridoma culture supernatant and as purified antibody; also called mp11G9.6; mp11G9.6 antibody
B8: anti-PLD4 chimeric 11G9 antibody (antibody, human IgG1, kappa, V domains shown)
VH: B7 VH
VL: B4 VL with G17D, S18R, D30S, F91G, R96W
notes: Mouse 11G9.6 variable regions on human IgG1 heavy and human Ig kappa light constant regions; also called ch11G9.6; ch11G9.6 antibody

Biological target: T1, rhesus monkey PLD4 (rhesus monkey, UniProt Q96BZ4 1-506 (human entry))
T1 construct: also called rhesus monkey PLD4 protein
T1 chain: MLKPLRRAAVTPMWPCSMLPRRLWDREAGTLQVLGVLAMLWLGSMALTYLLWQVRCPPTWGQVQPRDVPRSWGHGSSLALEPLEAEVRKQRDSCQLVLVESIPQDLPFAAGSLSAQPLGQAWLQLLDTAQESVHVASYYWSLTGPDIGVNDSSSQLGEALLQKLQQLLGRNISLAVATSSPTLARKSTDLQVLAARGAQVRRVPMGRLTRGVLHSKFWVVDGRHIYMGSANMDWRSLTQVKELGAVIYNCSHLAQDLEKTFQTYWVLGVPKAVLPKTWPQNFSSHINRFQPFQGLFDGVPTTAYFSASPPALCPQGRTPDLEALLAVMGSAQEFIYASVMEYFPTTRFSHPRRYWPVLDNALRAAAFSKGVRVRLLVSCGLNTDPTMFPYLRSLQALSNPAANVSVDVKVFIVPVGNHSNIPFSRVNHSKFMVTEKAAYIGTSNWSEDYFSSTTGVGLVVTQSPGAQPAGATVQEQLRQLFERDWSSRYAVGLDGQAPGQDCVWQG
Assay: FACS, hybridoma culture supernatant on rhesus monkey PLD4-293T transient transfectants (FIG. 17)

| Binder | binding result |
| --- | --- |
| B1 | binds |

Biological target: T1, rhesus monkey PLD4
Assay: FACS on rhesus monkey PBMC, pDC population (FIG. 18-1, 18-2)
Method: PBMC of rhesus monkey from the peripheral blood (10 mL; SHIN NIPPON BIOMEDICAL LABORATORIES, LTD.), was centrifuged with specific gravity using 96% Ficoll-Paque (trademark) PLUS (GE Healthcare company, Cat No. 17-1440-02). For FACS, 5×10⁵ of cells were used per sample. The cells were washed with FACS buffer cell, and then added with 10 μL of 10% cynomolgus monkey serum diluted with FACS buffer, and reacted at 4° C. for 20 minutes. The cells were washed with FACS buffer, and then added with 100 μL of the cell culture supernatant of each hybridoma and 10 μg/mL of mouse IgG2a, κ or mouse IgG1, κ, and reacted at 4° C. for 15 minutes. The cells were washed with FACS buffer, and then added with 1 μg/mL of APC-labeled anti-mouse IgG antibody, and reacted at 4° C. for 20 minutes. The cells were washed with FACS buffer, and then reacted with 25 μL of 10 fold dilution of FITC-labeled anti-Lineage 1 antibody, PE-labeled anti-CD123 antibody, and PcrCP-Cy5.5-labeled anti-HLA-DR antibody at 4° C. for 15 minutes. The cells were washed with FACS buffer, and then resuspended in 300 μL of FACS buffer, and analyzed with FACS calibur. The used hybridoma culture supernatant was specific to PLD4, and 10 kinds of 3B4, 5B7, 7B4, 8C11, 10C3, 11D10, 13D4, 13H11, 14C1, and 11G9.6, which bound well to CAL-1 cell or human pDC, were selected. As a result thereof, 5 kinds of the hybridoma cell culture supernatants, i.e., 5B7, 7B4, 13D4, 13H11, and 14C1 specifically bound to pDC cell population of cynomolgus monkey (Lineage-CD123+HLA-DR+) (FIG. 18).

| Binder | binding result |
| --- | --- |
| B2 | binds |
| B3 | binds |
| B4 | binds |
| B5 | binds |
| B6 | binds |

Biological target: T2, human PLD4 (phospholipase D4) protein (UniProt Q96BZ4 1-506)
T2 chain: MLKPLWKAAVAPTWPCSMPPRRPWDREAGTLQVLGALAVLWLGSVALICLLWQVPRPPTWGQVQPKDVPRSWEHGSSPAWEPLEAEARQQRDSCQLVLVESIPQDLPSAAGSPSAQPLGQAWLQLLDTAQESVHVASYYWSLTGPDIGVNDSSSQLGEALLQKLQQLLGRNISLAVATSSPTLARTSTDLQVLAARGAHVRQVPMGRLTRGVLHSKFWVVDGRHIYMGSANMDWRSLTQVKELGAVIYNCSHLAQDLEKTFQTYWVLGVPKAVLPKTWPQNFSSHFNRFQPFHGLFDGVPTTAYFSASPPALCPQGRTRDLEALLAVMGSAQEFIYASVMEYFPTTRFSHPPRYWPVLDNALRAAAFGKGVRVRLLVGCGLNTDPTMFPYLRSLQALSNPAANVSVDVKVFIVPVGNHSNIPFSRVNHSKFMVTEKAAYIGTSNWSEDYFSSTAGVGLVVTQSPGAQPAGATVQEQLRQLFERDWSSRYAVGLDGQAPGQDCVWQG
Assay: binding to human PLD4-CT125 stable cells; apparent Kd

| Binder | Kd |
| --- | --- |
| B1 | 2.12 nM |
| B2 | 0.056 nM |
| B3 | 0.087 nM |
| B4 | 0.057 nM |
| B7 | 0.058 nM |
| B5 | 3.73 nM |
| B6 | 0.045 nM |

Biological target: T3, cynomolgus monkey PLD4 (cynomolgus monkey, UniProt Q96BZ4 1-506 (human entry))
T3 construct: also called cynomolgus monkey PLD4 protein; cyno PLD4
T3 chain: T1 chain with C56R, R66K, L78P
Assay: FACS on cynomolgus monkey PLD4-CT125 cells (FIG. 16)

| Binder | binding result |
| --- | --- |
| B1 | binds |
| B2 | binds |
| B3 | binds |
| B4 | binds |
| B5 | binds |
| B6 | binds |

Biological target: T3, cynomolgus monkey PLD4
Assay: FACS on 293T transfectant (FIG. 9)

| Binder | binding result |
| --- | --- |
| B8 | binds |

biological target: T4, human PLD4 (phospholipase D4) protein (human, UniProt Q96BZ4 1-506); assay: FACS titration (0.001 to 30 µg/mL) of purified antibody on human PLD4-CT125 cells, positive cell frequency fitted with GraphPad Prism (FIG. 19)
T4 construct: Type II transmembrane protein, 506 a.a; also called hPLD4; HuPLD4
T4 sequence: T2 chain
Method: For binding ability of the purified antibody, human PLD4-CT125 expression stable cell strain was reacted to nearly 100% of the positive staining rate at low concentration to high concentration (0.001 μg/mL to 30 μg/mL) of purified PLD4 antibody concentration. The frequency of staining positive cell and the antibody were data-analyzed using Graph Pad Prism version 5 software, and the dissociation constant molar concentration (Kd value) was computed in nM unit.

| Binder | Kd |
| --- | --- |
| B1 | > 1 nM |
| B2 | ≤ 1 nM |
| B3 | ≤ 1 nM |
| B4 | ≤ 1 nM |
| B7 | ≤ 1 nM |
| B5 | > 1 nM |
| B6 | ≤ 1 nM |

biological target: T5, human PLD5 (human, UniProt Q8N7P1 92-536); assay: FACS on 293T transfectants (FIG. 8)
T5 sequence: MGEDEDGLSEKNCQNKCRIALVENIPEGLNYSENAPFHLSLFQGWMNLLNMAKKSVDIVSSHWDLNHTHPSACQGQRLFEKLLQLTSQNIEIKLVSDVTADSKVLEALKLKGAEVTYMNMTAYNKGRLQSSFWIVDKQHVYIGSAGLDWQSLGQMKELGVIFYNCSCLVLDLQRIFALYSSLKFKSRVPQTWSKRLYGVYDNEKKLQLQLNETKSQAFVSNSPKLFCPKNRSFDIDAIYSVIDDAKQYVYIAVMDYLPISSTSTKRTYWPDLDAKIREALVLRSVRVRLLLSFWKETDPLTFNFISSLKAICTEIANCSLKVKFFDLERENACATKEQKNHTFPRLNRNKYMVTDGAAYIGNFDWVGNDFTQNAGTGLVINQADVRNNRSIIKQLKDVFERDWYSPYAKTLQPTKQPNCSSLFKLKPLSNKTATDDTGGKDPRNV

| Binder | binding result |
| --- | --- |
| B7 | no binding |
| B8 | no binding |

biological target: T6, human PLD3 (human, UniProt Q8IV08 1-490); assay: FACS on 293T transfectants (FIG. 8)
T6 construct: also called human PLB3 [sic]
T6 sequence: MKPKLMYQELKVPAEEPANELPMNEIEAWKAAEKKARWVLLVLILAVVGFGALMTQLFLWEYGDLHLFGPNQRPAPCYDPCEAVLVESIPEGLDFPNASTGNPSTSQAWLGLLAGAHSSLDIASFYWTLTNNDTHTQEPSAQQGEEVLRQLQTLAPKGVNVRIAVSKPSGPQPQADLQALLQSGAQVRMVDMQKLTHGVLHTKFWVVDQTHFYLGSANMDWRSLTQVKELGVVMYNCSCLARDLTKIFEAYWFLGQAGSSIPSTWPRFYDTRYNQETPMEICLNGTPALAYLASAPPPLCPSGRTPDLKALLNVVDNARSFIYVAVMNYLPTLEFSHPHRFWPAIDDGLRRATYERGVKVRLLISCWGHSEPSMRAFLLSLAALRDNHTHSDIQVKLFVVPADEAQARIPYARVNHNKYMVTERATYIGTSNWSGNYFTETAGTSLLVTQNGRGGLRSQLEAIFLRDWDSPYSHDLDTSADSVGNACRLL

| Binder | binding result |
| --- | --- |
| B7 | no binding |
| B8 | no binding |
